Source: publication PMC6832617

Assays:
[1] = biological target: recombinant His-tagged NS1 protein of West Nile virus strain IS-98-ST1 (NS1^WNV) (West Nile virus, strain IS-98-ST1); assay: negative-stain electron microscopy
[2] = biological target: recombinant His-tagged NS1 protein of West Nile virus strain IS-98-ST1 (NS1^WNV) (West Nile virus, strain IS-98-ST1); assay: SDS-PAGE without heat denaturation + Western blot

recombinant His-tagged NS1 protein of West Nile virus strain IS-98-ST1 (NS1^WNV) (natural protein)
stoichiometry N [1]: 6 | stoichiometry N [2]: 2
